Laboratory results as given in patent publication US20240358834A1 (University of Pennsylvania, published 2024).

T1: human CD19 protein with a biotinylated AviTag (Acrobiosystems) (human, UniProt P15391 20-291, biotinylated AviTag)
T1 construct: Captured on streptavidin-coated microplate wells; also called biotinylated-AviTag-CD19; hCD19; not shown: AviTag
T1 sequence (looked up): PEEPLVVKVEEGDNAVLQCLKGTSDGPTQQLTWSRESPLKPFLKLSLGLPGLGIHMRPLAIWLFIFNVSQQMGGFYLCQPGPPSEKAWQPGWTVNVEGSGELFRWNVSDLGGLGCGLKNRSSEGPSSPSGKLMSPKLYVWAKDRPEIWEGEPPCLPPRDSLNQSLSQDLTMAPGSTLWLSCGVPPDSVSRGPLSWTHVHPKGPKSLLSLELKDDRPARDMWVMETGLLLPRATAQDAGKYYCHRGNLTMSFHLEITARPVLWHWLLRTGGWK

B1: scFv 1 (scFv)
scFv: QAVLNQPASVSAALGQRVTISCNTNIGSPYDVQWYQQLPGKSPKTIIYGNSNRPSGVPVRFSGSKSGSTATLTIAGIQAEDEADYYCQSYDDSLDGRVVFGGGTQLTVLGGGSSRSSSSGGGGSGGGGEVQLVESGGDLVKPGGSLRLSCVASGFTFSNHEMYWVRQAPGKGLEWVARIYDSGSRTRYADAVKGRFTISRDNAKNTLYLQMNSLTAEDTAVYFCAGGNSRGWTEFGMDYWGPGTLVTVSSASTTAPSVTSGQAGQHHHHHHGAYPYDVPDYAS
notes: Canine scFv (VL-linker-VH); also called scFv_01; P3-15
B2: scFv 16 (scFv)
scFv: QSVLTQPTSVSGSLGQRVTISCTGSSSNVGYGNYVGWYQQLPGTGPRTLIYGSHYRPSGVPDRFSGSSSGSSATLTISGLQAEDEADYYCSSYDSTLSGYVFGSGTQLTILGGGSSRSSSSGGGGSGGGGEVQLVESGGDLVKPGGSLRLSCVGSGFTLSSYWMSWVRQAPGKGLQWIAEISGSGNTIYYGDAVKGRFTISRDNAKNTLYLQMNSLRDEDTAVYYCATEYYWNIDNWGQGTLVTVSSESPFPPNLTSGQAGQHHHHHHGAYPYDVPDYAS
notes: Canine scFv (VL-linker-VH); also called P3-33; P4-01
B3: scFv 11 (scFv)
scFv: QPVLTQPPSVSGALGQTVTISCSGSHTNIGSGFDVQWYQQLPGKSPQTLVYANINRPSGVPARFSGSKSGSTATLTITGVQAEDEADYYCQSYDDNFDYVFGSGTQLTVLGGGSSRSSSSGGGGSGGGGEVQLVESGGDLVKPGGSLRLSCVASGFTFSDYSMSWVRQSPGKGLQWVAAIMTSGSTYYADAVKGRFTISRDNAKNTLYLQMDSLRAEDTAVYYCAHDYWFDFWGQGTLVTVSSASTTAPSVTSGQAGQHHHHHHGAYPYDVPDYAS
notes: Canine scFv (VL-linker-VH); also called P3-57
B4: scFv 13 (scFv)
scFv: QPVLTQPPSVSGALGQTVTISCSGSHTNIGSGFDVQWYQQLPGKSPQTLVYANINRPSGVPARFSGSKSGSTATLTITGVQAEDEADYYCQSYDDNFDYVFGSGTQLTVLGGGSSRSSSSGDGGSGGGGEVQLVESGGGLMKPGGSLKLSCLASGFTFSRYYMYWVRQAPGKGLQWVAQISSDGRRTYYADAVQGRFTISRDNVKNTVYLQMNSLSDEDTAVYYCVREDYFDFDYWGQGTLVTVSSASTTAPSVTSGQAGQHHHHHHGAYPYDVPDYAS
notes: Canine scFv (VL-linker-VH); also called P3-36; P3-38
B5: scFv 25 (scFv)
scFv: DIVMTQTPLSLSVSPGETASISCKASQSLLHSNGNTYLNWFRQKPGQSPQVLIYQVSNRDTGVPDRFSGSGSGTDFTLRISRVEADDAGVYYCGQGIQYPPTFGAGTKVELKGGSSRSSSSGGGGSGGGGEEQLVEFGGDLVKPGGSLRLSCVASGFTFSSLSMNWIRQAPGKGLQWVSQISPDGTITGYTDAVKGRFTISRDNAKNTLYLQMNSLRDEDTAIYYCAKSRYTDTYPFDYWGPGTLVTVSSESPSPPNLTSGQAGQHHHHHHGAYPYDVPDYAS
notes: Canine scFv (VL-linker-VH); also called P3-40
B6: scFv 14 (scFv)
scFv: QSVLNQPPSVSAALGQRITISCTGSHTNIGSGYDVQWYQQLPGKSPRTIIYGNSDRPSGVPVRFSGSKSGNTATLTITGIQAEDEADYYCQSYDDNLNDPYVFGSGTQLTVLGGGSSRSSSSGGGGSGGGGEVQLVQSGGDLVKPGGSLRLSCVASGFAFSGKTMQWVRQAPGKGLQWVAYIQHDGSRTSYADAVKGRFTISRDNAKNTLYLQMDSLRAEDTAVYYCADHPWYGPEYWGQGTPVTVSSESPSPPNLTSGQAGQHHHHHHGAYPYDVPDYAS
notes: Canine scFv (VL-linker-VH); also called P3-58
B7: scFv 17 (scFv)
scFv: QPVLTQPPSVSAALGQRVTISCTGSKTNIGSGYDVQWYQQLPGKSPKTIIYGNSNRPSGVPARFSGSKSGSIATLTITGIQAEDEADYYCQSFDDNVDGYVFGSGTQLTILGGGSSRSSSSGGGGSGGGGEVPLVESGGDLVKPGGSLRLSCVASGFTFSSYGMSWVRQAPGKGLQWVAYINGGGSSTSYADAVRGRFTISRDNAENTLYLQMNSLRADDTAVYYCSNYYGIYWDSDYWGQGTLVTVSSESPSPPNLTSGQAGQHHHHHHGAYPYDVPDYAS
notes: Canine scFv (VL-linker-VH); also called P4-05A; P4-05B
B8: scFv 21 (scFv)
scFv: QPVLTQPPSVSVSLGQTATISCSGESLSKYYAQWFQQKAGQAPVLVIYKDTERPSGIPDRFSGSSSGNTHTLTISGARAEDEADYYCESAVSSDTAVFGSGTQLTVLGGGSSRSSSSGGGGSGGGGEVQLVESGGDMVKPGGSLRLSCVASGFTFSSFWMYWVRQAPGKGLQWVGGINSGGSITSYADAVKGRFTISRDNARNTLYLQMDSLRDEDTAVYYCAKPDIYGSFDHWGQGTLVTVSSESPSPPNLTSGQAGQHHHHHHGAYPYDVPDYAS
notes: Canine scFv (VL-linker-VH); also called P3-04; P3-34
B9: scFv 23 (scFv)
scFv: DIVMTQTPLSLSVSPGEPASISCKASQSLLHSNGNTYLYWFRQKPGQSPQRLIYLVSNRDAGVPDRFSGSGSGTDFTLRISRVEADDSGIYYCGQGKQDPITFGEGTHLEIKGGSSRSSSSGGGGSGGGGELTLQESGPGLVKPSQTLSLTCVVSGGSVTTSDYWNWLRQRPGRGLEYMGYWKGRTEYNPAFQGRISITADTAKNQFSLQLNSVTADDTAIYYCAHWGSGNLDYWGPGTLVTVSSESPSPPNLTSGQAGQHHHHHHGAYPYDVPDYAS
notes: Canine scFv (VL-linker-VH); also called P3-37
B10: scFv 15 (scFv)
scFv: SYELTQPPSVSAALGQGVTISCIGSDTNIGNHYDVQWYQQLPGKSPRTIIYGNSDRPSGVPGRFSGSKSGNTATLTITGIQAEDEADYHCQSYDDDLDGHIVFGGGTHLTVLGGGSSRSSSSGGGGSGGGGEVQLVQSGGDLVKPGGSLRLSCVASGFTFNKYHMSWVRQAPGKGLQWVGKITSDGSATGYADAVKGRFTISRDNAKNTFYLQMDSLRAEDTAMYYCARDQSSWGTGNFDYWGQGTLVTVSSASTTAPSVTSGQAGQHHHHHHGAYPYDVPDYAS
notes: Canine scFv (VL-linker-VH); also called P3-59A
B11: scFv 20 (scFv)
scFv: QSVLNQPPSVSVSLGQTATISCSGESLSKYYAQWFQQKAGQVPVLVIYKDTERPSGIPDRFSGSSSGNTHTLTISGARAEDEADYYCESEVSPDTIVFGGGTHLTVLGGGSSRSSSSGGGGSGGGGEVQLVESGGDLVKPGGSLRLSCVASGFTFSSYAMSWVRQAPGEGLQWVAYINSAGSTTYYADAVKGRFTISRDNARNTVYLQMNSLRAEDTAVYYCGRYYYGLDYWGPGTSVFVSSESPSPPNLTSGQAGQHHHHHHGAYPYDVPDYAS
notes: Canine scFv (VL-linker-VH); also called P3-12
B12: scFv 19 (scFv)
scFv: QAVLTQPASVSGPLGQRVTISCSGSTNNIGIVGAAWYQQFPGKAPKLLVYSDGSRPSGVPDRFSGSNSGNSATLTISGLQAEDEADYYCQSVDATHGTILFGGGTQLTVLGGGSSRSSSSGGGGSGGGGEVQLVETGGDLVKPAGSLRLSCAASGFPFSGYSMTWVRQAPEKGLQLVAGINSDGSHTYYTDDVKGRFTVSRDNTKYILYLQMNSLRVEDTAIYYCGSHSWGNFHYWGQGTLVTVSSESPSPPNLTSGQAGQHHHHHHGAYPYDVPDYAS
notes: Canine scFv (VL-linker-VH); also called P3-35
B13: scFv 10 (scFv)
scFv: QAVLNQPASVSGALGQTVTISCSGSHTNIGSGFDVQWYQQLPGKSPQTIIYANINRPSGVPARFSGSKSGSTATLTITGVQAEDEADYHCQSFDDDLDGPVFGGGTHLTVLGGGSSRSSSSGGGGSGGGGEVQLVQSGGDLVKPGGSLKISCVASGLTFNRNYMTWIRQAPGKGLQWVSEINPDGSTTSYTDAVRGRFTISRDNAKNTLYLQMNSMRDEDTAVYYCARSSWGSFDYWGQGTLVTVSSASTTAPSVTSGQAGQHHHHHHGAYPYDVPDYAS
notes: Canine scFv (VL-linker-VH); also called P3-01
B14: scFv 12 (scFv)
scFv: SYELTQPPSATVTLRQTARLTCGGENIGRKSVQWYQQKPGQSPLLIIYADSSRPSGIPERFSGANSGNTASLTISGALAEDEADYYCQIWDRNINVFGSGTQLTVLGGGSSRSSSSGGGGSGGGGEEQLVEFGGDLVKPAGSLRLSCVASGFTFSSYDMSWVRQAPGKGLQWVATISYDGSSTYYTDAVKGRFTVSRDNAKNTLYLQMNSLRAEDTALYYCAKDSGSWSHFYGLDTWGHGTSVFVSSASTTAPSVTSGQAGQHHHHHHGAYPYDVPDYAS
notes: Canine scFv (VL-linker-VH); also called P3-48
B15: scFv 22 (scFv)
scFv: QPVLTQPPSVSGSLGQRVTISCTGSSSNVGYGDYVGWYQQLPGTSPRTLIYSSSSRPSGVPDRFSGSRSGSTATLTISGLQAEDEADYHCSSYDTSLNGFVFGSGTQLTILGGGSSRSSSSGGGGSGGGGELTLQESGPGLVKPAQTLSLTCTVSGDSVTSSHFWHWIRQRPGRGLEWMGYWSDITIYSPTFQGRISITVDTARNQFSLHLNSVTTEDSAVYFCARYNGYVDYLDVWGQGTLITVSSASTTAPSVTSGQAGQHHHHHHGAYPYDVPDYAS
notes: Canine scFv (VL-linker-VH); also called P3-09; P3-11
B16: scFv 2 (scFv)
scFv: SYVLTQSPSLSGSLGQKVTISCTGSRSNLGGNYVGWYQQVPGMAPRNVIYANDFRPSRIPARFSASKSGTSATLTISGLQAEDEADYFCSSWDDDLGSHVFGSGTQLTILGGGSSRSSSSGGGGSGGGGEEQLVEFGGDLVKPGGSLRLSCVASGFSFSSYDMSWVRQAPGKGLQWVASTNFDGSRTYYTDAVEGRFTISRDNARNTVYLQMNSLRAEDTAVYYCARGMGSWGASTFGYWGQGTLVTVSSASTTAPSVTSGQAGQHHHHHHGAYPYDVPDYAS
notes: Canine scFv (VL-linker-VH); also called scFv_02; P3-21
B17: scFv 18 (scFv)
scFv: QSALTQTASVSGSLGQKVTISCTGSRSNIGANYVGWYQQVPGIGPRTVIFGYNYRPSGVPDRFSSSKSGNSATLTISGLQAEDEAEYYCSTWDSSLNAYVFGSGTQLTVLGGGSSRSSSSGGGGSGGGGEVPLVESGGDLVKPGGSLRLSCVASGFTLSNYGMSWVRQSPGKGLQWVAAIRSGGNTYYADAVKGRFTISRDNAKNTLYLQMNSLRAEDTAVYYCASQWGDWGHFEYWGQGTLVTVSSASTTAPSVTSGQAGQHHHHHHGAYPYDVPDYAS
notes: Canine scFv (VL-linker-VH); also called P4-12

biological target: T1, human CD19 protein with a biotinylated …; assay: phage ELISA, biotinylated AviTag CD19 on streptavidin wells; signal ratio to FMC63 standard
From the text: To identify unique human CD19-binding monoclonal scFv from the panned libraries, individual phage antibody clones were expanded, assessed for binding to CD19 by ELISA, and subjected to nucleotide sequencing to identify those clones that were unique. A total of 84 scFvs were randomly selected from the panned libraries (70 from P3 and 14 from P4).

ELISA hCD19 (ratio FMC63) | Binder
0.84 ratio to FMC63 | B1
0.41 ratio to FMC63 | B2
0.31 ratio to FMC63 | B3
0.28 ratio to FMC63 | B4
0.15 ratio to FMC63 | B5
0.59 ratio to FMC63 | B6
0.66 ratio to FMC63 | B7
0.71 ratio to FMC63 | B8
0.36 ratio to FMC63 | B9
0.99 ratio to FMC63 | B10
0.47 ratio to FMC63 | B11
0.26 ratio to FMC63 | B12
0.77 ratio to FMC63 | B13
0.16 ratio to FMC63 | B14
0.21 ratio to FMC63 | B15
0.49 ratio to FMC63 | B16
0.27 ratio to FMC63 | B17
